Experimental data: the supplement of paper PMC6757056
± gives the standard deviation of the averaged measurements.

B1: library; a variant is named by its letters at N, in order (parent)
chain: GCUGUCACCGGUGCUUGGUACGUUAUAUUCAGCCGGUCUGAUGAGUCUNNNNNNAGACGAAACAGC

Key:
(6R,S)-folinic acid [1] = variants of: B1; test: FACS-Seq fitted mean relative fluorescence mCherry/BFP without ligand (log10 relative fluorescence); HEK293T overexpressing SLC46A1; higher = higher reporter protein expression; conditions: without (6R,S)-folinic acid; ligand present: no
Summary of the method: (§1)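 An mCherry reporter containing the ribozyme switch and an EF1α-BFP marker were introduced by lentivirus into HEK293T libraries. Cells were enriched, incubated 48 h with or without ligand, sorted into 6 bins by mCherry/BFP, and bin genomic DNA was PCR-amplified, barcoded and sequenced on MiSeq. Fluorescence represents the normalized fitted normal mean of the bin counts. Fitting was done on log10(mCherry/BFP), scaling to five spiked-in control ribozymes.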

(6R,S)-folinic acid [2] = variants of: B1; test: normalized RNA/DNA level without ligand (relative to sTRSVctl = 100) (log10 (% of sTRSVctl)); HEK293T overexpressing SLC46A1; higher = less ribozyme self-cleavage, higher mRNA level; conditions: without (6R,S)-folinic acid; ligand present: no
Summary of the method: (§2)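 Library plasmids encoding reporter-linked ribozyme switches (mCherry, or eGFP for some folinic acid experiments) were transfected into HEK293T at 4 µg per 6-well well. Ligand, when used, was added 1 h before transfection. Total RNA was extracted with EDTA 72 h later, then reverse-transcribed, amplified, barcoded and sequenced. RNA level was RNA reads over DNA reads, divided by a spiked-in non-cleaving control (or the top 25 sequences), ×100, log10; only sequences with ≥100 DNA reads were kept.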

(6R,S)-folinic acid [3] = variants of: B1; test: FACS-Seq fitted mean relative fluorescence mCherry/BFP with ligand (log10 relative fluorescence); HEK293T overexpressing SLC46A1; ligand concentration (+) FACS-Seq: 6 mM; higher = higher reporter protein expression; conditions: with (6R,S)-folinic acid; ligand present: yes
Summary of the method: as §1

(6R,S)-folinic acid [4] = variants of: B1; test: normalized RNA/DNA level with ligand (relative to sTRSVctl = 100) (log10 (% of sTRSVctl)); HEK293T overexpressing SLC46A1; ligand concentration (+) RNA-Seq: 6 mM; higher = less ribozyme self-cleavage, higher mRNA level; conditions: with (6R,S)-folinic acid; ligand present: yes
Summary of the method: as §2

| Variant | FACS-Seq fitted mean (log10) ((6R,S)-folinic acid [1]) | normalized RNA/DNA level without ligand (log10) ((6R,S)-folinic acid [2]) | FACS-Seq fitted mean (log10) ((6R,S)-folinic acid [3]) | normalized RNA/DNA level with ligand (log10) ((6R,S)-folinic acid [4]) |
| --- | --- | --- | --- | --- |
| AUUGCG | 0.231 ± 0.12 | 1.8333 ± 0.00083 | 0.245 ± 0.22 | 2 ± 0.04 |
| AAUGGU | 0.406 ± 0.13 | 1.9355 ± 0.00018 | 0.51 ± 0.099 | 2 ± 0.055 |
| UGAGAA | 0.5 ± 0.038 | 1.917 ± 0.011 | 0.533 ± 0.26 | 1.98 ± 0.026 |
| UGAGAG | 0.384 ± 0.054 | 1.689 ± 0.012 | 0.526 ± 0.022 | 1.92 ± 0.02 |
| UAUGGG | 0.1983 ± 0.0014 | 1.54 ± 0.028 | 0.816 ± 0.12 | 1.91 ± 0.045 |
| AUACUC | 0.248 ± 0.028 | 2.049 ± 0.0056 | 0.188 ± 0.18 | 2.03 ± 0.037 |
| CUGCCC | 0.494 ± 0.029 | 2.07 ± 0.041 | 0.403 ± 0.0067 | 2.06 ± 0.021 |
| UAAACG | 0.324 ± 0.13 | 1.799 ± 0.016 | 0.717 ± 0.1 | 1.95 ± 0.032 |
| UCGGAA | 0.527 ± 0.079 | 1.897 ± 0.0085 | 0.24 ± 0.14 | 1.99 ± 0.037 |
| AAAACA | 0.359 ± 0.036 | 1.988 ± 0.0088 | 0.304 ± 0.0079 | 2 ± 0.024 |
| GUAAUC | 0.0594 ± 0.051 | 2.09 ± 0.023 | -0.00665 ± 0.0039 | 2.063 ± 0.0092 |
| UGUAGC | 0.389 ± 0.16 | 1.907 ± 0.01 | 0.362 ± 0.049 | 1.988 ± 0.016 |
| UCUUGC | 0.264 ± 0.036 | 2.018 ± 0.0075 | 0.449 ± 0.17 | 2.009 ± 0.016 |
| GGAGAC | 0.571 ± 0.081 | 2.0007 ± 0.00018 | 0.512 ± 0.3 | 2.009 ± 0.0055 |
| AAGAUU | 0.318 ± 0.11 | 2.007 ± 0.0072 | 0.312 ± 0.032 | 2.02 ± 0.022 |
| AAGAUA | -0.141 ± 0.082 | 1.959 ± 0.0077 | -0.581 ± 0.18 | 1.994 ± 0.015 |
| AAGAUC | 0.442 ± 0.061 | 2.04 ± 0.0043 | 0.504 ± 0.1 | 2.02 ± 0.029 |
| AUGAUU | 0.418 ± 0.17 | 1.989 ± 0.0036 | 0.334 ± 0.023 | 2.02 ± 0.027 |
| UGACUG | 0.14 ± 0.2 | 1.857 ± 0.0074 | 0.368 ± 0.08 | 1.99 ± 0.054 |
| UAGGGG | 0.0613 ± 0.073 | 1.648 ± 0.0041 | 0.172 ± 0.14 | 1.97 ± 0.04 |
| UAGGGU | 0.607 ± 0.2 | 1.885 ± 0.015 | 0.604 ± 0.026 | 1.98 ± 0.049 |
| GAUAUG | 0.0919 ± 0.075 | 1.919 ± 0.005 | 0.0285 ± 0.14 | 2 ± 0.038 |
| UAUGUG | 0.257 ± 0.25 | 1.65 ± 0.024 | 0.638 ± 0.018 | 1.944 ± 0.019 |
| GGUGCA | 0.256 ± 0.027 | 2.037 ± 0.017 | 0.204 ± 0.17 | 2.04 ± 0.032 |

| Variant | FACS-Seq fitted mean (log10) ((6R,S)-folinic acid [1]) | normalized RNA/DNA level without ligand (log10) ((6R,S)-folinic acid [2]) | FACS-Seq fitted mean (log10) ((6R,S)-folinic acid [3]) | normalized RNA/DNA level with ligand (log10) ((6R,S)-folinic acid [4]) |
| --- | --- | --- | --- | --- |
| AUAUGU | 0.367 ± 0.12 | 1.9129 ± 0.00064 | 0.417 ± 0.46 | 2.0205 ± 0.0011 |
| GGACAA | 0.352 ± 0.14 | 1.98 ± 0.0036 | 0.748 ± 0.25 | 1.99 ± 0.02 |
| AAAGGA | 0.158 ± 0.1 | 1.909 ± 0.007 | 0.355 ± 0.16 | 2 ± 0.027 |
| UGUUUU | 0.296 ± 0.18 | 1.985 ± 0.0066 | 0.546 ± 0.13 | 2.03 ± 0.023 |
| GGGACU | 0.111 ± 0.0086 | 2.023 ± 0.011 | 0.0545 ± 0.19 | 2.008 ± 0.019 |
| AAUCUU | 0.524 ± 0.12 | 2.002 ± 0.013 | 0.276 ± 0.024 | 2.013 ± 0.017 |
| AAUCUA | 0.267 ± 0.13 | 1.99 ± 0.013 | 0.439 ± 0.27 | 2.014 ± 0.013 |
| CAGAAU | 0.372 ± 0.044 | 1.921 ± 0.0042 | 0.495 ± 0.24 | 1.951 ± 0.0096 |
| CAGACA | 0.583 ± 0.12 | 2.017 ± 0.00058 | 0.769 ± 0.2 | 1.98 ± 0.02 |
| CUUGAG | 0.41 ± 0.091 | 1.9276 ± 0.0002 | 0.534 ± 0.33 | 2.005 ± 0.0023 |
| GACGUG | 0.598 ± 0.2 | 1.946 ± 0.019 | 0.734 ± 0.17 | 2.01 ± 0.029 |
| AAUAUG | 0.207 ± 0.053 | 1.895 ± 0.0025 | 0.137 ± 0.061 | 1.99 ± 0.034 |
| UAGGAA | 0.503 ± 0.15 | 1.884 ± 0.01 | 0.822 ± 0.011 | 1.98 ± 0.038 |
| GGGUAC | 0.536 ± 0.17 | 1.952 ± 0.0069 | 0.245 ± 0.036 | 1.99 ± 0.073 |
| UUGAGA | 0.325 ± 0.084 | 1.841 ± 0.013 | 0.468 ± 0.01 | 1.993 ± 0.0082 |
| UUCUAA | 0.64 ± 0.015 | 2.014 ± 0.011 | 0.66 ± 0.067 | 2.01 ± 0.026 |
| UCCAGA | -0.0235 ± 0.25 | 2.01 ± 0.0079 | 0.123 ± 0.14 | 2 ± 0.029 |
| UGAUAC | 0.272 ± 0.049 | 1.984 ± 0.019 | 0.128 ± 0.094 | 2 ± 0.044 |
| CAAUUC | -0.0653 ± 0.041 | 2.019 ± 0.012 | -0.136 ± 0.18 | 1.998 ± 0.016 |
| AAUCGG | 0.494 ± 0.13 | 1.94 ± 0.017 | 0.573 ± 0.06 | 2.01 ± 0.027 |
| AACUGG | 0.3585 ± 0.0022 | 1.936 ± 0.013 | 0.657 ± 0.038 | 2 ± 0.07 |
| GACAAA | 0.367 ± 0.089 | 1.974 ± 0.0039 | 0.306 ± 0.081 | 2.007 ± 0.019 |
| AUUGAA | 0.561 ± 0.054 | 1.97 ± 0.01 | 0.718 ± 0.079 | 2 ± 0.014 |
| UGGUGA | 0.399 ± 0.049 | 1.881 ± 0.0069 | 0.443 ± 0.061 | 2.014 ± 0.0098 |

| Variant | FACS-Seq fitted mean (log10) ((6R,S)-folinic acid [1]) | normalized RNA/DNA level without ligand (log10) ((6R,S)-folinic acid [2]) | FACS-Seq fitted mean (log10) ((6R,S)-folinic acid [3]) | normalized RNA/DNA level with ligand (log10) ((6R,S)-folinic acid [4]) |
| --- | --- | --- | --- | --- |
| GUAUAG | 0.256 ± 0.031 | 1.94 ± 0.0061 | 0.546 ± 0.096 | 2.01 ± 0.048 |
| UGUGAG | 0.269 ± 0.082 | 1.6 ± 0.0064 | 0.649 ± 0.03 | 1.906 ± 0.0071 |
| GUUAGG | 0.206 ± 0.031 | 1.938 ± 0.0023 | 0.301 ± 0.51 | 2 ± 0.031 |
| GCAGGA | 0.7 ± 0.19 | 1.972 ± 0.0072 | 0.642 ± 0.041 | 2.02 ± 0.023 |
| GGUUGC | 0.472 ± 0.12 | 1.932 ± 0.0076 | 0.388 ± 0.059 | 1.9808 ± 0.0018 |
| UAUAUG | 0.194 ± 0.045 | 1.75 ± 0.018 | 0.678 ± 0.12 | 1.97 ± 0.035 |
| CCCCUA | 0.532 ± 0.01 | 2.052 ± 0.0066 | 0.388 ± 0.34 | 2.06 ± 0.034 |
| AUGUAG | 0.508 ± 0.058 | 1.864 ± 0.016 | 0.615 ± 0.17 | 1.99 ± 0.035 |
| AACAGG | 0.475 ± 0.12 | 1.904 ± 0.01 | 0.351 ± 0.0077 | 2 ± 0.031 |
| UGCAUU | 0.0991 ± 0.29 | 1.987 ± 0.01 | -0.057 ± 0.47 | 2.01 ± 0.043 |
| AACGCC | 0.452 ± 0.091 | 2.0652 ± 0.0011 | 0.336 ± 0.023 | 2.07 ± 0.046 |
| UAAAGU | 0.553 ± 0.0074 | 1.886 ± 0.0062 | 0.894 ± 0.26 | 1.99 ± 0.045 |
| AAUUGA | 0.309 ± 0.021 | 1.966 ± 0.0098 | 0.358 ± 0.11 | 2 ± 0.0091 |
| UAACCA | 0.441 ± 0.11 | 2.007 ± 0.0037 | 0.274 ± 0.073 | 1.98 ± 0.0045 |
| UCUUAG | 0.183 ± 0.18 | 1.86 ± 0.053 | -0.141 ± 0.14 | 2.02 ± 0.019 |
| AUAGCG | 0.172 ± 0.0027 | 1.664 ± 0.015 | 0.461 ± 0.046 | 1.96 ± 0.045 |
| ACGAAA | 0.141 ± 0.013 | 1.956 ± 0.0063 | -0.0169 ± 0.14 | 2 ± 0.04 |
| GGGUUG | 0.344 ± 0.19 | 2.037 ± 0.0021 | 0.56 ± 0.17 | 2.05 ± 0.049 |
| UUCCAA | 0.112 ± 0.15 | 1.992 ± 0.0026 | 0.213 ± 0.13 | 2 ± 0.028 |
| AAAUCC | 0.504 ± 0.068 | 2.044 ± 0.013 | 0.398 ± 0.23 | 2.03 ± 0.044 |
| AUAUCC | 0.455 ± 0.027 | 2.0352 ± 0.00073 | 0.839 ± 0.019 | 2.03 ± 0.039 |
| UCAAGC | 0.599 ± 0.019 | 2.071 ± 0.0039 | 0.553 ± 0.17 | 2.05 ± 0.04 |
| GCGUAC | 0.258 ± 0.3 | 1.974 ± 0.0093 | 0.514 ± 0.11 | 2.02 ± 0.022 |
| GAAUCG | 0.149 ± 0.053 | 1.966 ± 0.0024 | 0.372 ± 0.14 | 2 ± 0.022 |
